Here are results for 142 substances from the supplement of paper PMC12042874.

± gives the uncertainty stated by the source.

The data set can be described thus: amyloid nucleation score (Sup35N fusion, yeast selection) (log enrichment); library NNK2; higher = more nucleation; inactive = no reads after selection. A digest of the protocol:
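Nucleation score is defined as the DiMSum log enrichment of output over input reads, with centring on the mode score of non-aggregating sequences. A minimum of 100 input reads was required for each sequence. Reads came from Illumina sequencing of plasmid inserts from psi-negative yeast expressing Sup35N fused to peptides of 20 random codons, induced with 100 μM copper sulfate for 24 hours and grown 7 days at 30°C on medium lacking adenine and uracil.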
The substance QGSNCLHYRLSIIS displayed an amyloid nucleation score of -1.05 ± 1.1.
For QHFDLVATGMGYSWAMLYFA the value was 0.776 ± 0.43.
Take QHSLAMSSHKLSTTVEESWP: the amyloid nucleation score is 0.818 ± 0.45.
The result for QIIRPCVRRDKTGFIALVMG reads 1.27 ± 0.49; that for QILSRGFAPWT, -1.54 ± 0.78.
For QIPVELNNVLNLYLVLCRIE the value was -0.459 ± 1.1; for QIQVYMNALLTRLSSIILIF, -0.93 ± 0.55; for QIVIWVRLYFNVFSRSRSRV, 1.05 ± 0.36.
The result for QKMLLKIWIVDRNTYSAVLN reads -0.425 ± 0.74; that for QKMRFYWLVMMAV, -0.283 ± 1; that for QKTWEIANCFAELEKKIRQG, 2.4 ± 0.069.
QLENMCFFSPLQTYMLDRNW returned an amyloid nucleation score of -1.47 ± 0.41.
Take QLESKRWWDIGWCSYLAGGW: the amyloid nucleation score amounted to 4.92 ± 0.068.
For QLNIHLMNLRI the value was 9.23 ± 0.056; for QLNVIDIYTSGWISFP, -1.06 ± 0.26; for QLPSR, -0.243 ± 0.31.
For QLRRFERMLSLVM the value was 1.31 ± 0.3.
In the case of QLVMCGHEDQYIRSDRSERN, the amyloid nucleation score was -0.112 ± 0.25.
For QLVPRHNGTAKGCSGPLTRV the value was 0.402 ± 0.26.
For QLVYCVNFVFFARVTNRSAR the value was 3.95 ± 0.06; for QMETSFL, -1.58 ± 1.1.
QMICFHSWLGGSSLTVFHHC: the amyloid nucleation score is 3.84 ± 0.12.
The result for QMQYFKATYSI reads -0.613 ± 0.44; that for QNACH, -0.011 ± 1.1; that for QNECKIMTLIFCLLRSKQYY, 0.005 ± 0.65.
The result for QNEVSLEVVFVKEGVGFDRL reads -0.665 ± 0.76.
With QNTMALKHNICPEHSSMWNS, the amyloid nucleation score was 2.64 ± 0.066.
For QPCLHAMV the value was 0.319 ± 0.56; for QPGSGFSVAPVQVKHNTVCR, 0.397 ± 0.33.
The result for QPPMRVYSLVMLCDAVSSKD reads 0.339 ± 0.56.
For QPSFPTHCQDRFVEECINEV the value was “inactive”.
QRADQWVSRKLRPSIARL returned an amyloid nucleation score of 1.52 ± 0.34.
For QRCRFPYDTGSSTHSWTEVG the value was 0.614 ± 0.35.
For QRVMHTYYVS the value was 0.073 ± 0.24.
For QSCWIFSGHSE the value was -1.03 ± 0.44.
QSKMH: the amyloid nucleation score is -0.321 ± 0.19.
The result for QSMSNACFVMGTRCITKRAA reads 4.633 ± 0.044; that for QSPNHVHSLRPGLDQLSALP, -0.08 ± 0.39.
QSRSMNRHNWHTFMLWAWER: the amyloid nucleation score was -0.695 ± 0.61.
For QSVGATNLLG the value was 0.501 ± 0.34; for QSWSRQSATGPWTLVCQRRP, 0.69 ± 0.51.
For QVLCIVLDTSMIGTKACLGV the value was 0.325 ± 0.57; for QVLTMNRLWVVPPAHYCVVG, 0.84 ± 0.53; for QVTSNRSTGRRYILNQMC, -0.337 ± 1.1.
For QYQKIIWISCSIPMQMTISA the value was -0.097 ± 1.1; for QYWTNRCKDWERVSRKPLKL, “inactive”.
Substance QYYELWSFTDWVWDLWGVQS registered an amyloid nucleation score of -0.568 ± 0.63.
For RADGSFMKLLA the value was -0.628 ± 0.5; for RAEVNA, 0.517 ± 0.26.
For RAGFSSAPLVEGRSLTQRCR the value was “inactive”; for RCELSRRGTSLRTWRWARNG, 1.46 ± 0.17; for RCFIHRGGLLVVLV, -0.98 ± 0.54.
The result for RCFNLWSNSVLFNCSVCSAE reads 7.414 ± 0.065; that for RCGSDLCDTFWVTLRGYGEV, 0.595 ± 0.43.
In the case of RCKWVRGVSRMPNHWN, the amyloid nucleation score came out at 0.779 ± 0.4.
RCLPISTIVF yielded an amyloid nucleation score of 2.43 ± 0.16.
For RCLSYFGLKLLRVSRLFIDL the value was 0.034 ± 0.28.
The result for RCRHLLSMPLPVSFEMDGRG reads 2.85 ± 0.099; that for RCRILA, 2.51 ± 0.1; that for RCSTGRVFSSLDEVLLSRWG, 4.64 ± 0.048.
For RCVWINVGCSPILIGYAAHY the value was 8.728 ± 0.03; for RCYINFGIHGLWMLHVCFWG, -0.849 ± 1.1.
As for RDRFS, the amyloid nucleation score is 0.248 ± 0.61.
For RDSFRDTAYHELVYFTKNFR the value was “inactive”; for RECFLNPWSVYVRFS, -0.086 ± 0.44; for REDNPRADTCMAYGV, 1.14 ± 0.35.
The result for REGYNAIMYDV reads -1.27 ± 0.62; that for RELCVFASCAFVGLLVESWK, 6.16 ± 0.078.
For REVYWLMCTA the value was 0.747 ± 0.47; for REWEVCGDCLVGNNGWFRWV, 0.409 ± 0.47; for RFAMFMVVRWGWDHKYEFLR, 0.353 ± 0.33.
The substance RFCSMSLSWNYDSC displayed an amyloid nucleation score of 5.5 ± 0.079.
For RFDPNTAWNLTFSSSRCVAG, the amyloid nucleation score stood at 0.91 ± 0.27.
As to RFEMRSGLKDKLDKVGS, the amyloid nucleation score entry was “inactive”.
For RFFCYKSYMLLECLRIVSVC the value was -0.853 ± 0.78; for RFKSNNRPCWHCHPLLGFRT, 1.06 ± 0.43.
The result for RFNTCLDS reads -0.005 ± 0.29; that for RFQELMTK, 0.626 ± 0.8; that for RFRHNKWYCLLRLAG, 0.956 ± 0.33.
RFTFFAGAS registered an amyloid nucleation score of 0.367 ± 0.21.
Regarding RFVKSRRATILSNDG, the amyloid nucleation score was -0.198 ± 0.39.
For RFWDQACQAFMSSMVEGPVD the value was -0.548 ± 1.1; for RFWPWLLVRPNFPMLSQ, 0.216 ± 0.37; for RFWSMETEHDIIALVFASSV, 0.096 ± 0.49.
The result for RFYVGTIFSPYILLSSTECM reads 3.82 ± 0.06.
With RGDHLGCSII, the amyloid nucleation score is -0.101 ± 0.79.
For RGDRSWGVRSCSRYDAAIAG the value was 1.71 ± 0.38; for RGFRIVLINRCVILRSV, 0.198 ± 0.26.
The result for RGLRDLMCLRPLRLASSQPP reads “inactive”; that for RGMVE, 0.587 ± 0.53; that for RGRAFGPEIRNKSLGLTYPV, 0.282 ± 0.21.
RGRCNVVSSLTFTIRSLWTV: the amyloid nucleation score stood at 1.59 ± 0.13.
Turning to RGSNVGMRDLAYRPHSGQMW, the amyloid nucleation score is 1.68 ± 0.56.
For RGSYMVPWHVERIIGNSRVS the value was -0.899 ± 0.23; for RGVLVEFYGAMENISWSTYW, -0.497 ± 0.76.
The result for RGVVWRR reads 0.23 ± 0.63; that for RGWCFWASPGRR, 0.2 ± 0.26; that for RGWRAGMYFACF, 0.656 ± 0.42.
For RHDLWAPRTERMMVYMCTAA the value was 0.544 ± 0.26; for RHGVVLSNVSKSVVSVPGAK, -0.409 ± 0.76; for RHHGVRIYMRNFGNVYVYIR, 3.85 ± 0.11.
Regarding RHICIFMNRMSYMDLWPALL, the amyloid nucleation score entry is “inactive”.
The result for RHKMWVFRT reads “inactive”.
Consider RHMSTVKTLSEGLNLESGLI, for which the amyloid nucleation score is -0.519 ± 0.74.
The result for RHRRHLNHYAPTSSMIWTYS reads 0.258 ± 0.65; that for RHTFLVSAGYKERMVGMTSG, -1.12 ± 0.63; that for RIDRFLFASGHEGYAVN, 4.507 ± 0.033.
The result for RIENFVWC reads -0.688 ± 0.63; that for RIGSGTGRPWN, -1.02 ± 0.39.
The result for RIGTFWRGQDKLDVFKYGVV reads -0.236 ± 0.37; that for RIGVSSFVEEHSRIGLGRAP, 5.57 ± 0.066; that for RIHYYVVLCLGSRRSTFGLR, -0.171 ± 0.28.
In turn, RIKYG gave an amyloid nucleation score of 4.05 ± 0.065.
For RIRSCTLMWT the value was 0.807 ± 0.22.
The substance RITFV displayed an amyloid nucleation score of -0.64 ± 0.76.
The result for RITIAQHTDSKGDA reads -0.01 ± 0.61.
The result for RIVFHYVCTVLR reads -0.964 ± 0.76.
The result for RIYGILVSFYCIVYDGFSGG reads 1.9 ± 0.082; that for RKAFIHVDKRLDSSIGTRSG, 0.321 ± 0.41.
As for RKCSSVLRGHTVQDVHFFSA, the amyloid nucleation score is -0.056 ± 0.56.
The result for RKGCWSL reads 1.65 ± 0.34; that for RKRRLMYLSGDNTQPFARLY, -0.686 ± 1.1.
RKSVWYCDIFIIEYPDFSYS: the amyloid nucleation score turned out to be 2.07 ± 0.1.
The result for RKVSSARNSVIATSMSNNSV reads -1.61 ± 0.54.
For RKVVRLSHFLMCDCSRKPRR the value was -0.072 ± 0.76.
The result for RKYNGCSFQHYGLSVRTRSL reads 2.37 ± 0.2; that for RLCTVRSP, 1.55 ± 0.14; that for RLDGSG, 0.587 ± 0.2.
RLDSMMVAYNAT had an amyloid nucleation score of 0.724 ± 0.81.
RLGEWGFNRLVWFNKEAVCS gave an amyloid nucleation score of 0.495 ± 0.47.
For RLGPSSWSWHL the value was 1.52 ± 0.29; for RLKVIFRSLFHLLRAVRGSH, -1.36 ± 0.75; for RLLAVPLVRFRC, -0.23 ± 0.79.
For RLLRLDQKQIMVRSSSAVLR the value was -0.107 ± 0.32.
The result for RLLSGCLFGGSRA reads -0.623 ± 0.76; that for RLMDGYSSV, 0.548 ± 0.29; that for RLNCLSTWIVYCGPGYVSSV, -0.571 ± 0.45.
In the case of RLPAFSRFG, the amyloid nucleation score is -0.452 ± 0.37.
For RLQDNRDVATGH the value was “inactive”; for RLQSSRSGVKAL, 0.208 ± 0.8; for RLRDDENIGIFMTF, -1.15 ± 1.
For RLSRCL the value was 4.23 ± 0.055.
